In paper PMC7545097, “Mapping the native interaction surfaces of PREP1 with PBX1 by cross-linking mass-spectrometry and mutagenesis” (Scientific Reports, 2020):

B1: PBX1_(1-430), wild-type recombinant [human] / PREP1_(1-436), wild-type recombinant (TR-FIA) [not stated] (parent complex)
chain 1: MDEQPRLMHSHAGVGMAGHPGLSQHLQDGAGGTEGEGGRKQDIGDILQQIMTITDQSLDEAQARKHALNCHRMKPALFNVLCEIKEKTVLSIRGAQEEEPTDPQLMRLDNMLLAEGVAGPEKGGGSAAAAAAAAASGGAGSDNSVEHSDYRAKLSQIRQIYHTELEKYEQACNEFTTHVMNLLREQSRTRPISPKEIERMVSIIHRKFSSIQMQLKQSTCEAVMILRSRFLDARRKRRNFNKQATEILNEYFYSHLSNPYPSEEAKEELAKKCGITVSQVSNWFGNKRIRYKKNIGKFQEEANIYAAKTAVTATNVSAHGSQANSPSTPNSAGSSSSFNMSNSGDLFMSVQSLNGDSYQGAQVGANVQSQVDTLRHVISQTGGYSDGLAASQMYSPQGISANGGWQDATTPSSVTSPTEGPGSVHSDTSN
chain 2: MMATQTLSIDSYQDGQQMQVVTELKTEQDPNCSEPDAEGVSPPPVESQTPMDVDKQAIYRHPLFPLLALLFEKCEQSTQGSEGTTSASFDVDIENFVRKQEKEGKPFFCEDPETDNLMVKAIQVLRIHLLELEKVNELCKDFCSRYIACLKTKMNSETLLSGEPGSPYSPVQSQQIQSAITGTISPQGIVVPASALQQGNVAMATVAGGTVYQPVTVVTPQGQVVTQTLSPGTIRIQNSQLQLQLNQDLSILHQDDGSSKNKRGVLPKHATNVMRSWLFQHIGHPYPTEDEKKQIAAQTNLTLLQVNNWFINARRRILQPMLDSSCSETPKTKKKTAQNRPVQRFWPDSIASGVAQPPPSELTMSEGAVVTITTPVNMNVDSLQSLSSDGATLAVQQVMMAGQSEDESVDSTEEDAGALAPAHISGLVLENSDSLQ
B2: N-terminal GST-fused wild-type PREP1 [not stated] / PBX1_(1-430), wild-type recombinant [human] (parent complex)
chain 1: B1 chain 2
chain 2: B1 chain 1

Variants of: B1
Assay: TR-FIA; parent: 1; read off a plot

ratio to parent	Variant
~0.66	chain 1 L113A
~0.93	chain 1 I53A
~0.52	chain 1 L81A
~0.45	chain 1 V80A
~0.75	chain 1 L47A
~0.83	chain 1 I50A, chain 1 I53A
~0.39	chain 1 V80A, chain 1 L81A
~0.34	chain 1 L77A, chain 1 V80A, chain 1 L81A
~0.56	chain 1 I84A
~0.66	chain 1 L105A, chain 1 L108A, chain 1 L113A
~0.64	chain 1 I197A, chain 1 I204A
~0.73	chain 1 L108A

The next lines start with the variant.

Variant	ratio to parent
chain 1 L105A, chain 1 L108A	~0.62
chain 1 I43A, chain 1 I46A, chain 1 I50A	~0.8
chain 1 I43A, chain 1 I46A	~0.79
chain 1 I43A	~1
chain 1 I46A	~0.9
chain 1 L105A	~0.71
chain 1 L77A, chain 1 V80A	~0.42
chain 1 I50A	~0.62
chain 1 I43A, chain 1 I50A	~0.84
chain 1 L77A, chain 1 I84A	~0.46
chain 1 L77A	~0.63

Variants of: B2
Assay: TR-FIA; parent: 1; read off a plot

ratio to parent	Variant
~0.96	chain 1 L249A
~0.79	chain 1 L130A
~0.63	chain 1 L125A
~0.43	chain 1 L129A
~0.95	chain 1 L252A

The next lines start with the variant.

Variant	ratio to parent
chain 1 L66A	~0.59
chain 1 L63A, chain 1 L66A, chain 1 L67A, chain 1 L70A	~0.58
chain 1 L67A	~0.65
chain 1 L70A	~0.53
chain 1 I251A	~0.88
chain 1 I122A	~0.79
chain 1 L245A	~1
chain 1 V124A	~0.91
chain 1 L69A	~1.1
chain 1 L63A	~0.6
chain 1 L117A	~0.48

Variants of: B2
Assay: ELISA; PBX1 0.5 µM (highest point of the titration); GST control signal subtracted; parent: 0.8; read off a plot

response	Variant
~0.13 Abs, 495 nm	chain 1 L63A, chain 1 L66A, chain 1 L67A, chain 1 L70A
